The labels stand for the following.
B1: TPR t1 (parent)
chain: GACCAAUCUGCCCUCAGAGCUCGAGAACAUCUUCGGAUGCAGAGGAGGCAGGCUUCGGUGGCGCGAUAGCGCCAACGUCCUCAACCUCCAAUGCAUCCCACCACAUGAUGAUGCCUGAAGAGCCUUGGUUUUUUG

This series covers variants of B1. As to the kind of experiment: polymerase ribozyme fitness, log enrichment relative to wild type (log ratio); higher = more active; in vitro selection for triplet polymerase activity. In outline:
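Fitness measures genotype enrichment against wild-type enrichment on a logarithmic scale, with inverse-variance-weighted averaging of replicates. The logarithm is base 2, and genotypes were kept only with ≥10 input reads and ≥1 read per output in Illumina sequencing. The sequenced libraries came from one triplicate in vitro selection round, including frozen incubation at −7 °C, of PCR-built, transcribed mutant libraries of each subunit of a heterodimeric triplet polymerase ribozyme.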
C20U C70U C88A U106C: the “polymerase ribozyme fitness (log ratio)” value was -2.34. The result for C20U C53A A111G C114U reads -7.62; that for C20G A41U C56G G63C A95U A119U, -5.15; that for C20U C64U C85G C94G, -3.93. To G19U A37U U55G belongs -4.52; to C20U C34G A43U C70U C82U C114A, -7.14; to C20A G58C C72U C76U, -3.69.

Regarding G19U G42C, the “polymerase ribozyme fitness (log ratio)” value is -3.93.

On to G19U G42A, for which the “polymerase ribozyme fitness (log ratio)” value was -3.15. With C20A C22U C49A U92A C115U, the “polymerase ribozyme fitness (log ratio)” value was -7.22. Turning to C20U A29G C49A G58A A74U U81A U112A, the “polymerase ribozyme fitness (log ratio)” value is -3.14. Regarding C20U A90U G93A, the “polymerase ribozyme fitness (log ratio)” value was -2.41. Take C20A C56U C80U: the “polymerase ribozyme fitness (log ratio)” value is -4.41. To G19U G93U belongs -4.25. For the variant C20U C56U G63C C94A G120C, the “polymerase ribozyme fitness (log ratio)” value was -3.97.

Turning to C20A C79U, the “polymerase ribozyme fitness (log ratio)” value was -2.47. To C20A G52C C72A belongs -2.79; to G19U C115G U130G, -5.08. To C20G C89G C98A G120C belongs -2.55; to G19C C62U U112G, -6.55. For the variant C20G G44C C73U U78A A95C, the “polymerase ribozyme fitness (log ratio)” value was -6.9. G19U C70A: the “polymerase ribozyme fitness (log ratio)” value was -4.07.

For the variant G19U C70U, the “polymerase ribozyme fitness (log ratio)” value is -3.23. The result for G19U C70G reads -5.52. To G19U G48C C123U belongs -5.25; to G19U A75G, -3.56.

As for C20A C49U, the “polymerase ribozyme fitness (log ratio)” value was -3.79. For the variant C20U C40U A43U G93U, the “polymerase ribozyme fitness (log ratio)” value was -4.35. With C20A U54G C94U, the “polymerase ribozyme fitness (log ratio)” value is -3.21. For the variant C20U A95G, the “polymerase ribozyme fitness (log ratio)” value is -1.47. To C20G A41C C73A U78A A84C C123U U133G belongs -3.7.

As for C20A G65A C94G A105G G110A U125G G128U, the “polymerase ribozyme fitness (log ratio)” value is -5.13. C20G C72G: the “polymerase ribozyme fitness (log ratio)” value is -4.5. Turning to C20A G39A G77U A121G, the “polymerase ribozyme fitness (log ratio)” value was -1.8.

As for C20A U112A, the “polymerase ribozyme fitness (log ratio)” value came to 0.09. The result for C20G A75U reads -4.41; that for C20G A24G G45C C73A C88A C115U, -5.98.

Regarding C20A C64G U92C A121C, the “polymerase ribozyme fitness (log ratio)” value is -6.25.

Regarding C20A A50G A74U, the “polymerase ribozyme fitness (log ratio)” value is -3.16. As for C20G U32G A90U G93U U109C, the “polymerase ribozyme fitness (log ratio)” value was -4.13. As for C20A A26G G110U, the “polymerase ribozyme fitness (log ratio)” value is -4.8. Regarding G19U G44U, the “polymerase ribozyme fitness (log ratio)” value is -4.75. As for G19U C53G U54A C124A G128A, the “polymerase ribozyme fitness (log ratio)” value was -3.23. The result for C20G C56G reads -4.45; that for G19C G110C C114U, -5.66.

As to G19U C70U C94A C114U, the “polymerase ribozyme fitness (log ratio)” value is -2.13. Regarding G19U C94A A105C C114A A118U, the “polymerase ribozyme fitness (log ratio)” value was -0.986. Turning to C20A A41C G71A C82A, the “polymerase ribozyme fitness (log ratio)” value was -5.71. In the case of G19U C62G G71U, the “polymerase ribozyme fitness (log ratio)” value was -3.71.

As for G19U G61A C62U C124A U131C, the “polymerase ribozyme fitness (log ratio)” value was -4.46.

For C20G G52C A95G C102A C115U, the “polymerase ribozyme fitness (log ratio)” value was -6.79. As for C20U C56G, the “polymerase ribozyme fitness (log ratio)” value is -1.53. The result for C20U C56U reads -1.64. As for C20U A50U A83C, the “polymerase ribozyme fitness (log ratio)” value was -5.22. With C20G U106A, the “polymerase ribozyme fitness (log ratio)” value is -4.68. The result for C20G C115U A121C reads -6.48; that for C20U C64A C98A G117U, -6.4. On to C20G C85G, for which the “polymerase ribozyme fitness (log ratio)” value is -3.76.

Consider G19U A43G, for which the “polymerase ribozyme fitness (log ratio)” value was -2.34. With G19U A43U, the “polymerase ribozyme fitness (log ratio)” value is -3.24. Consider G19U A37C C56U A84C, for which the “polymerase ribozyme fitness (log ratio)” value was -3.87.

Take C20A C56A C76A C82U: the “polymerase ribozyme fitness (log ratio)” value was -4.8.

Consider C20A C104A C123G, for which the “polymerase ribozyme fitness (log ratio)” value was -4.45. With G19C C115G, the “polymerase ribozyme fitness (log ratio)” value was -2.22. Take C20A C28A G36A C72G A90C G110U: the “polymerase ribozyme fitness (log ratio)” value is -6.43. To G19U G69U G110C belongs -3.55; to C20G G58A C89G G117U, -4.04; to C20A A111G, -3.92. Regarding C20U C62G, the “polymerase ribozyme fitness (log ratio)” value is -3.42. The result for C20U C62U reads -1.15; that for C20U A27G, -3.07; that for C20A C53A U59A G69C, -4.

Consider C20A G117U U133A, for which the “polymerase ribozyme fitness (log ratio)” value was -4.77. The result for C20A A46G C49A G60U U81G A91C reads -5.46; that for C20A C70U C76G, -3.5; that for C20G C76A, -4.94. The result for C20G A41U C104A G113A U132C reads -5.25; that for C20U C62A G93A U129A, -4.93; that for C20U A26C C89U C124A, -4.83. To C20A A37U U54A belongs -3.54; to C20A G35U A100U C114A C115U U130C, -6.44; to G19U U55C G61C, -4.04. For G19C G42U G45C C72A C79A C82G, the “polymerase ribozyme fitness (log ratio)” value was -3.62.

As for C20G U54G C73A C89G A100C, the “polymerase ribozyme fitness (log ratio)” value was -5.53.

In the case of C20G U32C G48C G120A U130A, the “polymerase ribozyme fitness (log ratio)” value is -5.95. Consider C20A C40U, for which the “polymerase ribozyme fitness (log ratio)” value was -3.35.

Turning to C20A U92G G122U, the “polymerase ribozyme fitness (log ratio)” value was -4.6. To C20G A46U A118G belongs -5.92; to C20G C40U G42U C56A, -4.45. To C20A C82U U87G C102A belongs -4.69; to C20U C53U G113C, -1.84.

Consider C20A C28U A46C G113U C115A, for which the “polymerase ribozyme fitness (log ratio)” value was -4.17. To C20A U21A U54C C94U U109G belongs -5.29; to C20G A46U G120A, -4.96; to C20A A43U, -3.83. For C20U C49U A90U G117U, the “polymerase ribozyme fitness (log ratio)” value was -4.34. The result for C20A G57C C62U G120C reads -2.1; that for C20U C64U, -1.68; that for C20G U109G, -3.38. In the case of C20A C28A G45U A84U C104A G107U C124U, the “polymerase ribozyme fitness (log ratio)” value was -5.96. To G19C G42U G45C C79A C82G belongs -4.37; to G19U G44A C70A C72U, -6.42. The result for C20G C64A C70G G113A U125G U133G reads -5.92; that for C20U A46U, -2.88. For C20A A74G, the “polymerase ribozyme fitness (log ratio)” value is -3.04. The result for G19U C56G U106C reads -5.42. As for C20U C53A, the “polymerase ribozyme fitness (log ratio)” value is -3.19. C20U A111C: the “polymerase ribozyme fitness (log ratio)” value was -1.7. The result for G19C C94A U130C reads -2.66. To C20G C86A belongs -4.53; to C20U C34A, -4.05; to C20U C34G, -6.47. For the variant C20U A90U G110U, the “polymerase ribozyme fitness (log ratio)” value was -4.33. On to C20G G61A, for which the “polymerase ribozyme fitness (log ratio)” value is -3.66.

For C20A G39U G42A U55C C99U G113C G122A C123U, the “polymerase ribozyme fitness (log ratio)” value is -6.79. To G19U U55G C114A U131A belongs 2.05; to G19U C56U, -2.37.

As to C20A U54G C64G G113C, the “polymerase ribozyme fitness (log ratio)” value was -7.15. For the variant G19C C89A U125G, the “polymerase ribozyme fitness (log ratio)” value is -2.33. To C20A A37C G47C A83U U133G belongs -4.54. Regarding C20A G127C, the “polymerase ribozyme fitness (log ratio)” value is -2.94. To G19C A66C C114U U116C belongs -3.53; to G19U G60A C79U G120C, -2.44; to C20A G61C, -4.5.

For C20A G60U U92C A121C, the “polymerase ribozyme fitness (log ratio)” value was -2.4. With G19U G135U, the “polymerase ribozyme fitness (log ratio)” value was -3.57. Regarding G19U A46C G52C U54C U96C C114A, the “polymerase ribozyme fitness (log ratio)” value turned out to be 0.227. C20A U131G: the “polymerase ribozyme fitness (log ratio)” value was -2.8. As for C20A C62U, the “polymerase ribozyme fitness (log ratio)” value is -2.95. Regarding C20G A119U, the “polymerase ribozyme fitness (log ratio)” value was -4.11. Regarding G19U G36C A75G A111C U132A, the “polymerase ribozyme fitness (log ratio)” value is -5.05.

As for C20U A24U U32C C85U C101G G110U, the “polymerase ribozyme fitness (log ratio)” value was -6.93.

With C20A C22U U59G C82A A111U, the “polymerase ribozyme fitness (log ratio)” value was -5.49. The result for C20U C40U G61U U96G C115G U134A reads -3.07. To C20A C86A U112C G117A belongs -5.64. The result for C20U A29G G61U C115A U116C G117U reads -1.83; that for G19C C20A G71A A95U C102U U116C C123U U126G, -6.03.

For C20A A46C A74G G93C A118G, the “polymerase ribozyme fitness (log ratio)” value is -5.42.

With C20G U21A U112A, the “polymerase ribozyme fitness (log ratio)” value is -0.639. To C20A G52U C62U U96G G120A belongs -3.86; to C20A G60C, -3.33. C20A A41U G61A C102A: the “polymerase ribozyme fitness (log ratio)” value was -6.03. The result for G19C C86A reads -2.92. The result for C20G U32A G44C A111C G113U reads -2.86; that for C20A C79A U131A, -3.6. Regarding C20A C22U G42U G113U U132A, the “polymerase ribozyme fitness (log ratio)” value is -3.71.

For G19U C88U, the “polymerase ribozyme fitness (log ratio)” value was -3.2.

C20U C49U G71C A90U G117U: the “polymerase ribozyme fitness (log ratio)” value was -6.09. To C20A G52A G60A C98A C99U A105G C114A belongs -5.87; to C20A G39U, -4.11. Take C20A G45A G113U: the “polymerase ribozyme fitness (log ratio)” value was -0.291.

For G19U C53G C73A U112A, the “polymerase ribozyme fitness (log ratio)” value is -1.03.

With C20G G63A C102A U106C G120A U126A, the “polymerase ribozyme fitness (log ratio)” value was -7.38. The result for C20G A100U U112G reads -5.11; that for G19U C53G A91G, -3.77; that for G19U U130G, -3.14.

Consider G19C G52A A119U, for which the “polymerase ribozyme fitness (log ratio)” value is -3.63. The result for C20U C28U C72A C94U reads -1.9. To C20U C56U C70U A84U U130C belongs -2.96; to C20U C40A G69C C94G G120U, -5.2. To C20G C53G G57C A91G belongs -5.64. For C20A C124G, the “polymerase ribozyme fitness (log ratio)” value is -0.976.

Turning to G19C U92A C114U U133A, the “polymerase ribozyme fitness (log ratio)” value is -1.16.

Turning to G19C G60A G93A, the “polymerase ribozyme fitness (log ratio)” value is -2.11. To C20A C22G G71A A121G belongs -3.88; to C20U A83C, -1.52. C20U C49U C62U G69A: the “polymerase ribozyme fitness (log ratio)” value is -5.65.

Values taken from the RNAGym collection of RNA variant scans (doi:10.1073/pnas.2313332121).
